What is called Kd is the free concentration of one partner at which half of the binding sites on the other are occupied at equilibrium, for simple one-to-one binding.

This is an account of results in article PMC2915670.

The target in data set [1] is FMDV 2C(61–318) (foot-and-mouth disease virus, type [change]).
In data set [2] the target is FMDV 2C(34-318) (Foot-and-mouth disease virus type O1K, UniProt P03305 1141-1425). Kind of data set: EMSA. Background: In EMSA bound probe runs differently from free probe, usually more slowly.

Take FMDV 2C(61–318) (domain or fragment): the ATPase activity (pmol Pi/pmol protein/min) in data set [1] came to 0.46.
AAUUCUAAGGGCCAGCGAGA (ssRNA) [20-base ssRNA]: in data set [2], the Kd was about 5 µM.
With CGCGAAUAAUUU (ssRNA) [12-base ssRNA], the binding result in data set [2] is given as “binds”.
